Earlier results on two substances are cited in paper PMC6002756.

Data set [1] concerns the target E-cadherin ECD (UniProt P12830).
The target in data set [2] is E-cadherin (X-dimer) ECD (UniProt P12830).

For the substance E-cadherin ECD (from UniProt P12830), the Kd in data set [1] was 100 µM.
“E-cadherin (X-dimer) ECD (from UniProt P12830)”: in data set [2], the Kd was 900 µM.
